Columns and labels:
Assay in all cases: IEDB peptide-MHC binding, purified MHC/competitive/radioactivity; ≥ and ≤ were set here for values at or beyond the usual limits of such assays
Conditions in all cases: source organism: Bordetella pertussis
HLA-B*07:02 = target: HLA-B*07:02
HLA-B*44:03 = target: HLA-B*44:03
HLA-B*57:01 = target: HLA-B*57:01
HLA-A*02:01 = target: HLA-A*02:01
HLA-B*35:01 = target: HLA-B*35:01
HLA-B*53:01 = target: HLA-B*53:01

Q: For LPKPVTVKL, which IC50 (HLA-B*07:02) is on record?
A: 2.66 µM

Q: How did the IC50 (HLA-B*44:03) turn out when AEKVTTPAV was run?
A: 39.3 µM

Q: Which IC50 (HLA-B*57:01) does the source give for LAAQVTQRG here?
A: 40.2 µM

Q: Which IC50 (HLA-A*02:01) does the source give for AMTHLSPAL here?
A: 0.162 µM

Q: For ALILAASPV, which IC50 (HLA-A*02:01) is on record?
A: 26.3 µM

Q: For ATYIADSGF, which IC50 (HLA-B*57:01) is on record?
A: 4.17 µM

Q: Which IC50 (HLA-A*02:01) does the source give for SLADISLGA here?
A: 0.0911 µM

Q: With AMQGAVVHL as the sequence, how does the IC50 (HLA-A*02:01) read?
A: 2.65 µM

Q: What about the IC50 (HLA-B*44:03) of the same sequence?
A: 37.1 µM

Q: LPEPVKLTL was tested. Which IC50 (HLA-B*35:01) did it give?
A: 69.9 µM

Q: How did the IC50 (HLA-B*44:03) turn out when LEAGRRFTH was run?
A: 44.2 µM

Q: How did the IC50 (HLA-B*53:01) turn out when YIWGLYPTY was run?
A: 48.1 µM

Q: With AVAAPAVGA as the sequence, how does the IC50 (HLA-A*02:01) read?
A: ≥ 78.1 µM

Q: LMGPLQVNA was tested. Which IC50 (HLA-A*02:01) did it give?
A: 0.629 µM

Q: How did the IC50 (HLA-B*57:01) turn out when KTNMVVTSV was run?
A: 4.37 µM

Q: Which IC50 (HLA-B*44:03) does the source give for AELQTYLRQ here?
A: 1.83 µM

From the Immune Epitope Database (IEDB)
